For data set [1], the target named is T1, hPD-L1 (Homo sapiens, UniProt Q9NZQ7). Put plainly: Radiolabeled [35S] peptide binding assay on immobilized hPD-L1. The note with it: for hPD-L1 binding of SPAM alanine mutant normalized to SPAM: [35S]-labeled variants, n=3. The arrangement: designed from A18 to T239 with a methionine added to the N-terminus; hexahistidine tag (C); made in house. As for the experimental part: [^35S]-labeled peptides were translated as described above by including 2 μCi labeled methionine (Perkin Elmer) per 10 pmol of template in the translation reaction. Each peptide was tested with a […] (for X9-library derived peptides) (SEQ ID NO: 11) or a […] (for X17-library derived peptides) (SEQ ID NO: 12) C-terminal sequence. […] The supernatant was removed and was counted. The beads were subsequently washed three times with 1 mL of blocking buffer and the washes were also counted. Finally, the beads were resuspended in 1 mL of blocking buffer and were counted separately. The ratio of the counts remaining on the beads to the total counts added to the binding reaction (the sum of the counts for supernatant, washes, and beads) was calculated to determine the percent bound.

For data set [2], the system named is hPD-L1. The note with it: known peptides; cited from earlier work.
In data set [3] the target is T1, hPD-L1. Put plainly: Binding of second-generation fusions after RNase treatment and in 25% human serum. Also noted: target for immobilization and selection, the extracellular domain of hPD-L1 (from A18 to T239); hexahistidine tag (C). The note with it: 22° C., 25 pmol PD-L1; for binding to hPD-L1 after RNase treatment: RNase A 30 min 37° C.; for binding to hPD-L1 in human serum: RNase-treated fusions in 25% human serum in DMEM. How it is done:
The sequences identified from Sanger sequencing (A,B,C,D) were tested under binding conditions modified to be similar to physiological conditions and compared to the wildtype sequence (S) (FIG. 14). Sequences were prepared as fusions in standard blocking buffer, as RNase-treated fusions (RNase A treatment for 30 min. at 37° C.) in standard blocking buffer, or as RNase-treated fusions in 25% human serum in DMEM. Binding was measured at 22° C. with 0 and 25 pmol biotinylated PD-L1.

The target in data set [4] is T1, hPD-L1. Briefly: Radioactive binding assay of second-generation clones on immobilized human PD-L1. The note with it: 22° C., 2.5 or 12.5 pmol immobilized PD-L1. Also noted: target for immobilization and selection, the extracellular domain of hPD-L1 (from A18 to T239); hexahistidine tag (C).

Results on 38 substances are retold here after patent US12643935B2, “PD-L1 binding peptides” (UNIVERSITY OF SOUTHERN CALIFORNIA, priority 2020, dated 2026).

Entries after “also recorded” stand apart in the source; their conditions may differ. Where no end group is shown, it is not given here. [ ]: non-standard residue; d: D form. NMeNle = CCCC[C@H](NC)C(=O)O; NMeA = CN[C@@H](C)C(=O)O

As for “13A: SPAM variant, alanine substituted at position 3 (MPAFLDHILNKFWILHYAGSGSSGHHHHHHSS) [Peptide 13A]”, the “hPD-L1 binding of SPAM alanine mutant normalized to SPAM” value with hPD-L1 [1] is reported as “little or no significant influence”.

For “18A: SPAM variant, alanine substituted at position 8 (MPIFLDHALNKFWILHYAGSGSSGHHHHHHSS) [Peptide 18A]”, the “hPD-L1 binding of SPAM alanine mutant normalized to SPAM” value with hPD-L1 [1] is “little or no significant influence”.

As for “114A: SPAM variant, alanine substituted at position 14 (MPIFLDHILNKFWALHYAGSGSSGHHHHHHSS) [Peptide 114A]”, in the data set with hPD-L1 [1], the “hPD-L1 binding of SPAM alanine mutant normalized to SPAM” value was “completely abolished hPD-L1 binding”.

Turning to “A18: SPAM variant, glycine substituted for alanine at position 18 (MPIFLDHILNKFWILHYGGSGSSGHHHHHHSS; not fully specified) [Peptide A18]”, in the data set with hPD-L1 [1], the “hPD-L1 binding of SPAM alanine mutant normalized to SPAM” value was “completely abolished hPD-L1 binding”.

Take “Cyclo[(AcPhe)(NMePhe)(NMeNle)(Sar)DV(NMePhe)Y(Sar)WYLC-Gly-NH2 [Peptide-71]”: in the data set on hPD-L1 [2], the EC50 was 0.293 µM and the IC50 is 0.007 µM.

As for “Cyclo[(AcPhe)NMeAla)NPHLSWSW(NMeNle)(NMeNle)RC]Gly-NH2 (Ac-F[NMeA]NPHLSWSW[NMeNle][NMeNle]RCG-NH2; bridge (positions not given here); also: cyclic, ring from residue 1 to Cys 14, linkage type not given here) [Peptide-57]”, in the data set on hPD-L1 [2], the EC50 was 0.566 µM and the IC50 was 0.009 µM.

Take “D6A: SPAM variant, alanine substituted at position 6 (MPIFLAHILNKFWILHYAGSGSSGHHHHHHSS) [Peptide D6A]”: the “hPD-L1 binding of SPAM alanine mutant normalized to SPAM” value with hPD-L1 [1] is “completely abolished hPD-L1 binding”.

Take DYHDPSLPTLRK [CLP004]: in the data set with hPD-L1 [2], the IC50 is 1.17 µM and the Kd is 0.544 µM.

With “F4A: SPAM variant, alanine substituted at position 4 (MPIALDHILNKFWILHYAGSGSSGHHHHHHSS) [Peptide F4A]”, in the data set with hPD-L1 [1], the “hPD-L1 binding of SPAM alanine mutant normalized to SPAM” value was “little or no significant influence”.

For the substance “F12A: SPAM variant, alanine substituted at position 12 (MPIFLDHILNKAWILHYAGSGSSGHHHHHHSS) [Peptide F12A]”, the “hPD-L1 binding of SPAM alanine mutant normalized to SPAM” value with hPD-L1 [1] is “completely abolished hPD-L1 binding”.

For the substance “H7A: SPAM variant, alanine substituted at position 7 (MPIFLDAILNKFWILHYAGSGSSGHHHHHHSS) [Peptide H7A]”, the “hPD-L1 binding of SPAM alanine mutant normalized to SPAM” value in the data set with hPD-L1 [1] is on record as “completely abolished hPD-L1 binding”.

Regarding “H16A: SPAM variant, alanine substituted at position 16 (MPIFLDHILNKFWILAYAGSGSSGHHHHHHSS) [Peptide H16A]”, in the data set with hPD-L1 [1], the “hPD-L1 binding of SPAM alanine mutant normalized to SPAM” value is “completely abolished hPD-L1 binding”.

Take HYPFRPHANQAS [CLP001]: at hPD-L1 [2], the Kd is 0.534 µM.

As for “K11A: SPAM variant, alanine substituted at position 11 (MPIFLDHILNAFWILHYAGSGSSGHHHHHHSS) [Peptide K11A]”, the “hPD-L1 binding of SPAM alanine mutant normalized to SPAM” value with hPD-L1 [1] is “completely abolished hPD-L1 binding”.

In the case of KHAHHTHNLRLP [D-PPA-2], the Kd on hPD-L1 [2] was 1.13 µM.

With “L5A: SPAM variant, alanine substituted at position 5 (MPIFADHILNKFWILHYAGSGSSGHHHHHHSS) [Peptide L5A]”, the “hPD-L1 binding of SPAM alanine mutant normalized to SPAM” value with hPD-L1 [1] is “little or no significant influence”.

Take “L9A: SPAM variant, alanine substituted at position 9 (MPIFLDHIANKFWILHYAGSGSSGHHHHHHSS) [Peptide L9A]”: in the data set with hPD-L1 [1], the “hPD-L1 binding of SPAM alanine mutant normalized to SPAM” value is “little or no significant influence”.

As for “L15A: SPAM variant, alanine substituted at position 15 (MPIFLDHILNKFWIAHYAGSGSSGHHHHHHSS) [Peptide L15A]”, the “hPD-L1 binding of SPAM alanine mutant normalized to SPAM” value with hPD-L1 [1] is “completely abolished hPD-L1 binding”.

Turning to MEFTSDHSLNKFIILHYANNPF [Peptide C], in the data set with hPD-L1 [3], the “binding to hPD-L1 after RNase treatment” value is on record as “significant net binding; also recorded: show binding” and the “binding to hPD-L1 in human serum” value is given as “significant net binding; also recorded: show binding”. The “binding to immobilized human PD-L1 relative to parental SPAM (S)” value in the data set with hPD-L1 [4] is given as “comparable binding to the most frequent sequences; also recorded: better binding than the parental SPAM”.

Consider MKHSTDHVLNKFYIMHYTANPN [Peptide 9], for which the “binding to immobilized human PD-L1 relative to parental SPAM (S)” value with hPD-L1 [4] was “better binding than the parental SPAM”.

As for “MRIFAVFIFMTYWHLLNA [hPD-L1 signal peptide]”, in the data set with hPD-L1 [1] (streptavidin agarose beads loaded with 1.1 μM hPD-L1 (1,100 pmol)), the “binding to heavily loaded hPD-L1 beads” value was “some binding”.

Regarding MWSITDHNLNKFWILHYATKHG, in the data set with hPD-L1 [3], the “binding to hPD-L1 after RNase treatment” value is “significant net binding; also recorded: show binding” and the “binding to hPD-L1 in human serum” value was “significant net binding; also recorded: show binding”. The “binding to immobilized human PD-L1 relative to parental SPAM (S)” value with hPD-L1 [4] was “better binding than the parental SPAM”.

As to MWSRSDHNLNKFWILHYSANPS [Peptide 7], the “binding to immobilized human PD-L1 relative to parental SPAM (S)” value with hPD-L1 [4] is given as “better binding than the parental SPAM”.

Consider MYSHNDHNLNKFWILHFAVNQM [Peptide B], for which, in the data set with hPD-L1 [3], the “binding to hPD-L1 after RNase treatment” value was “significant net binding; also recorded: show binding” and the “binding to hPD-L1 in human serum” value is on record as “significant net binding; also recorded: show binding”. Besides, the “binding to immobilized human PD-L1 relative to parental SPAM (S)” value with hPD-L1 [4] is recorded as “better binding than the parental SPAM”.

As to MYSLNDHNLNKFWILHFAVNQM [Peptide 5], the “binding to immobilized human PD-L1 relative to parental SPAM (S)” value with hPD-L1 [4] is reported as “better binding than the parental SPAM”.

For the substance MYSRVDHNLNKFWILHQALKSN [Peptide 8], the “binding to immobilized human PD-L1 relative to parental SPAM (S)” value with hPD-L1 [4] was “better binding than the parental SPAM”.

On to MYTDADHILNKFLIMHYARNQQ [Peptide 1], for which the “binding to immobilized human PD-L1 relative to parental SPAM (S)” value in the data set with hPD-L1 [4] is recorded as “better binding than the parental SPAM”.

MYTLTDHILNKFWIMHYARNPT: in the data set with hPD-L1 [3], the “binding to hPD-L1 after RNase treatment” value is on record as “significant net binding; also recorded: show binding” and the “binding to hPD-L1 in human serum” value is on record as “significant net binding; also recorded: show binding”. Besides, the “binding to immobilized human PD-L1 relative to parental SPAM (S)” value with hPD-L1 [4] was “comparable binding to the most frequent sequences; also recorded: better binding than the parental SPAM”.

For MYTQTDHTLNKFLIMHEAFNST [Peptide 3], in the data set with hPD-L1 [4], the “binding to immobilized human PD-L1 relative to parental SPAM (S)” value is reported as “better binding than the parental SPAM”.

Regarding MYTSTDHILNKFLILHESLQST [Peptide 6], the “binding to immobilized human PD-L1 relative to parental SPAM (S)” value with hPD-L1 [4] is “better binding than the parental SPAM”.

Turning to “N10A: SPAM variant, alanine substituted at position 10 (MPIFLDHILAKFWILHYAGSGSSGHHHHHHSS) [Peptide N10A]”, in the data set with hPD-L1 [1], the “hPD-L1 binding of SPAM alanine mutant normalized to SPAM” value is on record as “completely abolished hPD-L1 binding”.

As for NYSKPTDRQYHF [D-PPA-1], the Kd at hPD-L1 [2] is 0.51 µM.

Regarding “P2A: SPAM variant, alanine substituted at position 2 (MAIFLDHILNKFWILHYAGSGSSGHHHHHHSS) [Peptide P2A]”, the “hPD-L1 binding of SPAM alanine mutant normalized to SPAM” value in the data set with hPD-L1 [1] is given as “decreased levels of hPD-L1 binding”.

Regarding SGQYASYHCWCWRDPGRSGGSK [TPP-1], the Kd at hPD-L1 [2] was 0.095 µM.

On to “W13A: SPAM variant, alanine substituted at position 13 (MPIFLDHILNKFAILHYAGSGSSGHHHHHHSS) [Peptide W13A]”, for which, in the data set with hPD-L1 [1], the “hPD-L1 binding of SPAM alanine mutant normalized to SPAM” value is listed as “completely abolished hPD-L1 binding”.

Regarding WHFSYNWRWLPP [CLP003], in the data set with hPD-L1 [2], the IC50 was 2.22 µM and the Kd was 0.117 µM.

Turning to WHRSYYTWNLNT [CLP002], in the data set on hPD-L1 [2], the IC50 was 2.17 µM and the Kd is 0.366 µM.

As to “Y18A: SPAM variant, alanine substituted for tyrosine (position 17 of SPAM) (MPIFLDHILNKFWILHAAGSGSSGHHHHHHSS) [Peptide Y18A]”, the “hPD-L1 binding of SPAM alanine mutant normalized to SPAM” value in the data set with hPD-L1 [1] is listed as “decreased levels of hPD-L1 binding”.
